Reference: US20070098721A1

Legend:
Assay in all cases: dot blot, antigen dilution series on nitrocellulose
[1] = target: Aβ(1-42) fibril preparation of example 27 (human) (UniProt P05067)
[2] = target: Aβ(1-42) oligomers B (human amyloid β(1-42) oligomers having molecular weights of 38 kDa and 48 kDa; preparation of example 6b) (human) (UniProt P05067)
[3] = target: HFIP-treated Aβ(1-42) monomer of example 1a (human amyloid β(1-42) protein) (human)
Sequence of HFIP-treated Aβ(1-42) monomer of example 1a (human amyloid β(1-42) protein) (human) (peptide, as listed by the source): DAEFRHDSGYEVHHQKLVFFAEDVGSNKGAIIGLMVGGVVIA

Sequence of Aβ(1-42) fibril preparation of example 27 (human) (P05067 672-713 limits assumed): as the sequence (peptide, as listed by the source) above
Sequence of Aβ(1-42) oligomers B (human amyloid β(1-42) oligomers having molecular weights of 38 kDa and 48 kDa; preparation of example 6b) (human) (P05067 672-713 limits assumed): as the sequence (peptide, as listed by the source) above

monoclonal antibody 6E10 (Signet)
minimum amount of antigen visible (detection limit) [1]: 1 pmol
minimum amount of antigen visible (detection limit) [2]: 0.1 pmol
minimum amount of antigen visible (detection limit) [3]: 0.1 pmol
